Test system: sera from colon cancer patients
Assay: Spot assay: reactivity of serologically defined colon cancer antigens with colon cancer patient sera
Type: binding, human
Details: reactive sera/sera tested; includes autologous where applicable; sera 1:200
Experimental: Serum samples from patients with colon cancer were screened using a modification of the plaque assay, termed a spot assay. In this method, 80×120 mm nitrocellulose membranes were precoated with a film of NZY/0.7% Agarose/2.5 mM IPTG and placed on a reservoir layer of NZY/0.7% Agarose in a 86×128 mm Omni Tray (Nalge Nunc International Corp., Naperville, Ill.). Approximately 1.0×10^5 pfU of monoclonal phage encoding individual serologically defined colon cancer antigens, in a volume of 20 μl, were mixed with 20 μl of exponentially growing E. coli XL-1 Blue MRF and spotted (0.7-μl aliquots) on the precoated nitrocellulose membranes. Membranes were incubated for 15 hours at 37° C. A total of 75 different serologically defined colon cancer antigens were spotted in duplicate per nitrocellulose membrane. The agarose film was then removed from the membrane and the filters were processed for reactivity with individual serum samples (1:200 dilution), as described in Scanlan, et al., Int. J. Cancer 76:652-658 (1998) and Scanlan, et al., Int. J. Cancer 83:456-64, (1999).

B1: TNKL (BC-203): serologically defined colon cancer antigen, protein SEQ ID NO:26 (protein, listed as Homo sapiens)
chain: QGAQRGARVGAAMGLRRSGDSREPSGPGPERVFSGGPRPPARGAGAPAPVAGAVAGCGGGQDHVGSPLRRRGSGLRDAAAEAVEPAARELFEACRNGDVERVKRLVTPEKVNSRDTAGRKSTPLHFAAGFGRKDVVEYLLQNGANVQARDDGGLIPLHNACSFGHAEVVNLLLRHGADPNARDNWNYTPLHEAAIKGKIDVCIVLLQHGAEPTIRNTDGRTALDLADPSAKAVLTGEYKKDELLESARSGNEEKMMALLTPLNVNCHASDGRKSTPLHLAAGYNRVKIVQLLLQHGADVHAKDKGDLVPLHNACSYGHYEVTELLVKHGACVNAMDLWQFTPLHEAASKNRVEVCSLLLSYGADPTLLNCHNKSAIDLAPTPQLKERLAYEFKGHSLLQAAREADVTRIKKHLSLEMVNFKHPQTHETALHCAAASPYPKRKQICELLLRKGANINEKTKEFLTPLHVASEKAHNDVVEVVVKHEAKVNALDNLGQTSLHRAAYCGHLQTCRLLLSYGCDPNIISLQGFTALQMGNENVQQLLQEGISLGNSEADRQLLEAAKAGDVETVKKLCTVQSVNCRDIEGRQSTPLHFAAGYNRVSVVEYLLQHGADVHAKDKGGLVPLHNACSYGHYEVAELLVKHGAVVNVADLWKFTPLHEAAAKGKYEICKLLLQHGADPTKKNRDGNTPLDLVKDGDTDIQDLLRGDAALLDAAKKGCLARVKKLSSPDNVNCRDTQGRHSTPLHLAAGYNNLEVAEYLLQHGADVNAQDKGGLIPLHNAASYGHVDVAALLIKYNACVNATDKWAFTPLHEAAQKGRTQLCALLLAHGADPTLKNQEGQTPLDLVSADDVSALLTAAMPPSALPSCYKPQVLNGVRSPGATADALSSGPSSPSSLSAASSLDNLSGSFSELSSVVSSSGTEGASSLEKKEVPGVDFSITQFVRNLGLEHLMDIFEREQITLDVLVEMGHKELKEIGINAYGHRHKLIKGVERLISGQQGLNPYLTLNTSGSGTILIDLSPDDKEFQSVEEEMQSTVREHRDGGHAGGIFNRYNILKIQKVCNKKLWERYTHRRKEVSEENHNHANERMLFHGSPFVNAIIHKGFDERHAYIGGMFGAGIYFAENSSKSNQYVYGIGGGTGVQFTKTDLVTFATAAALLPGNLGKVFPAVQCNENGTSPPGHHSVTGRPSVNGLALAEYVIYRGEQAYPEYLITYQIMRPEGMVDG
Reactivity of individual antigens: 6/75

— patent publication US7803382B2, “Method for inducing immune response to NY-CO-58” (Ludwig Institute for Cancer Research Ltd., priority 2001, dated 2010)
